Our source for the abundance fitness values is the Human Domainome abundance scans (Beltran et al. 2025).

B1: Cytoplasmic polyadenylation element-binding protein 2, residues 513 to 575; numbered along this chain, Q7Z5Q1 (parent)
chain: KRVEVKPYVLDDQMCDECQGARCGGKFAPFFCANVTCLQYYCEFCWANIHSRAGREFHKPLVK

± gives the uncertainty stated by the source.

Variants of B1 are the subject of the data set. The data set is described as follows: abundance fitness (aPCA) (normalised: wild type 0, dead -1); higher = more abundant; growth selection in yeast, the domain comes from the species named. As to conditions: Homo sapiens.
In the case of KRVEVKPYVLDDQMCDECQGARCGGKFAPFFCAVVTCLQYYCEFCWANIHSRAGREFHKPLVK [N34V], the abundance fitness was -0.29 ± 0.051.
Then KRVEVKPYVLDDQMCDECQGARCGGKFAPFFCAGVTCLQYYCEFCWANIHSRAGREFHKPLVK [N34G], with -0.106 ± 0.05; and KRVEVKPYVLDDQMCDECQGARCGGKFAPFFCALVTCLQYYCEFCWANIHSRAGREFHKPLVK [N34L], with -1.24 ± 0.093; and KRVEVKPYVLDDQMCDECQGARCGGKFAPFFCASVTCLQYYCEFCWANIHSRAGREFHKPLVK [N34S], with -0.095 ± 0.04.
Then KRVEVKPYVLDDQMCDECQGARCGGKFAPFFCAWVTCLQYYCEFCWANIHSRAGREFHKPLVK [N34W], with -0.2 ± 0.072.
Then KRVEVKPYVLDDQMCDECQGARCGGKFAPFFCAIVTCLQYYCEFCWANIHSRAGREFHKPLVK [N34I], with -0.731 ± 0.11; and KRVEVKPYVLDDQMCDECQGARCGGKFAPFFCAYVTCLQYYCEFCWANIHSRAGREFHKPLVK [N34Y], with -0.103 ± 0.074; and KRVEVKPYVLDDQMCDECQGARCGGKFAPFFCAQVTCLQYYCEFCWANIHSRAGREFHKPLVK [N34Q], with -0.207 ± 0.078.
With KRVEVKPYVLDDQMCDECQGARCGGKFAPFFCAFVTCLQYYCEFCWANIHSRAGREFHKPLVK [N34F], the abundance fitness is -0.363 ± 0.062.
For KRVEVKPYVLDDQMCDECQGARCGGKFAPFFCARVTCLQYYCEFCWANIHSRAGREFHKPLVK [N34R] the value was -0.207 ± 0.046.
For KRVEVKPYVLDDQMCDECQGARCGGKFAPFFCAMVTCLQYYCEFCWANIHSRAGREFHKPLVK [N34M] the value was -0.44 ± 0.05; for KRVEVKPYVLDDQMCDECQGARCGGKFAPFFCACVTCLQYYCEFCWANIHSRAGREFHKPLVK [N34C], -0.354 ± 0.082; for KRVEVKPYVLDDQMCDECQGARCGGKFAPFFCADVTCLQYYCEFCWANIHSRAGREFHKPLVK [N34D], -0.07 ± 0.089.
For KRVEVKPYVLDDQMCDECQGARCGGKFAPFFCAHVTCLQYYCEFCWANIHSRAGREFHKPLVK [N34H] the value was -0.438 ± 0.13; for KRVEVKPYVLDDQMCDECQGARCGGKFAPFFCAEVTCLQYYCEFCWANIHSRAGREFHKPLVK [N34E], 0.043 ± 0.044; for KRVEVKPYVLDDQMCDECQGARCGGKFAPFFCAPVTCLQYYCEFCWANIHSRAGREFHKPLVK [N34P], -0.878 ± 0.11.
As to KRVEVKPYVLDDQMCDECQGARCGGKFAPFFCAAVTCLQYYCEFCWANIHSRAGREFHKPLVK [N34A], the abundance fitness is -0.028 ± 0.05.
Then KRVEVKPYVLDDQMCDECQGARCGGKFAPFFCATVTCLQYYCEFCWANIHSRAGREFHKPLVK [N34T], with -0.175 ± 0.048; and KRVEVKPYVLDDQMCDECQGARCGGKFAPFFCANVTWLQYYCEFCWANIHSRAGREFHKPLVK [C37W], with -0.952 ± 0.092.
Then KRVEVKPYVLDDQMCDECQGARCGGKFAPFFCANVTHLQYYCEFCWANIHSRAGREFHKPLVK [C37H], with -0.352 ± 0.29; and KRVEVKPYVLDDQMCDECQGARCGGKFAPFFCANVTTLQYYCEFCWANIHSRAGREFHKPLVK [C37T], with -1 ± 0.12; and KRVEVKPYVLDDQMCDECQGARCGGKFAPFFCANVTFLQYYCEFCWANIHSRAGREFHKPLVK [C37F], with -0.85 ± 0.14.
Then KRVEVKPYVLDDQMCDECQGARCGGKFAPFFCANVTGLQYYCEFCWANIHSRAGREFHKPLVK [C37G], with -0.633 ± 0.056.
KRVEVKPYVLDDQMCDECQGARCGGKFAPFFCANVTALQYYCEFCWANIHSRAGREFHKPLVK [C37A]: the abundance fitness is -0.82 ± 0.06.
Take KRVEVKPYVLDDQMCDECQGARCGGKFAPFFCANVTLLQYYCEFCWANIHSRAGREFHKPLVK [C37L]: the abundance fitness was -0.931 ± 0.074.
For KRVEVKPYVLDDQMCDECQGARCGGKFAPFFCANVTELQYYCEFCWANIHSRAGREFHKPLVK [C37E] the value was -0.76 ± 0.083.
For KRVEVKPYVLDDQMCDECQGARCGGKFAPFFCANVTDLQYYCEFCWANIHSRAGREFHKPLVK [C37D] the value was -0.766 ± 0.1.
Take KRVEVKPYVLDDQMCDECQGARCGGKFAPFFCANVTSLQYYCEFCWANIHSRAGREFHKPLVK [C37S]: the abundance fitness was -0.54 ± 0.059.
For KRVEVKPYVLDDQMCDECQGARCGGKFAPFFCANVTQLQYYCEFCWANIHSRAGREFHKPLVK [C37Q] the value was -1.02 ± 0.13; for KRVEVKPYVLDDQMCDECQGARCGGKFAPFFCANVTPLQYYCEFCWANIHSRAGREFHKPLVK [C37P], -0.496 ± 0.064; for KRVEVKPYVLDDQMCDECQGARCGGKFAPFFCANVTILQYYCEFCWANIHSRAGREFHKPLVK [C37I], -0.568 ± 0.16.
For KRVEVKPYVLDDQMCDECQGARCGGKFAPFFCANVTYLQYYCEFCWANIHSRAGREFHKPLVK [C37Y] the value was -0.806 ± 0.12; for KRVEVKPYVLDDQMCDECQGARCGGKFAPFFCANVTRLQYYCEFCWANIHSRAGREFHKPLVK [C37R], -0.55 ± 0.057.
For the variant KRVEVKPYVLDDQMCDECQGARCGGKFAPFFCANVTVLQYYCEFCWANIHSRAGREFHKPLVK [C37V], the abundance fitness is -0.88 ± 0.068.
For KRVEVKPYVLDDQMCDECQGARCGGKFAPFFCANRTCLQYYCEFCWANIHSRAGREFHKPLVK [V35R] the value was 0.077 ± 0.039; for KRVEVKPYVLDDQMCDECQGARCGGKFAPFFCANITCLQYYCEFCWANIHSRAGREFHKPLVK [V35I], -0.088 ± 0.064.
Then KRVEVKPYVLDDQMCDECQGARCGGKFAPFFCANDTCLQYYCEFCWANIHSRAGREFHKPLVK [V35D], with -0.091 ± 0.13; and KRVEVKPYVLDDQMCDECQGARCGGKFAPFFCANGTCLQYYCEFCWANIHSRAGREFHKPLVK [V35G], with 0.058 ± 0.041; and KRVEVKPYVLDDQMCDECQGARCGGKFAPFFCANHTCLQYYCEFCWANIHSRAGREFHKPLVK [V35H], with -0.037 ± 0.082.
For KRVEVKPYVLDDQMCDECQGARCGGKFAPFFCANATCLQYYCEFCWANIHSRAGREFHKPLVK [V35A] the value was 0.039 ± 0.048; for KRVEVKPYVLDDQMCDECQGARCGGKFAPFFCANNTCLQYYCEFCWANIHSRAGREFHKPLVK [V35N], 0.108 ± 0.078.
Take KRVEVKPYVLDDQMCDECQGARCGGKFAPFFCANCTCLQYYCEFCWANIHSRAGREFHKPLVK [V35C]: the abundance fitness is -0.253 ± 0.076.
